Reference: patent US20210063414A1, “METHODS FOR PREVENTING AND/OR TREATING BONE LOSS CONDITIONS BY MODULATING IRISIN” (Dana-Farber Cancer Institute, Inc., priority 2018, published 2021)

How the values were obtained:
Assay in all cases: Crosslinking/co-immunoprecipitation/mass spectrometry (TMT quantitative proteomics) to identify irisin receptors
Assay type in all cases: binding
[1] = target: T1, MLO-Y4 cell surface proteins (Mus musculus, UniProt P59999); conditions: co-precipitated protein Atpc4 (ARPC4_MOUSE)
T1 construct: endogenous in cells; host or cells: MLO-Y4
Outline: (§1)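 Mouse MLO-Y4 cells were switched to serum-free FreeStyle medium for 4 h, chilled, then exposed to 10 nM His-tagged irisin (or adipsin as control) for 20 min. Cells were crosslinked with 1.5 mM DTSSP (30 min, ice), and bound proteins were pulled down on Ni-NTA and eluted with 250 mM imidazole. Eluates were separated by SDS-PAGE, trypsin-digested in gel, TMT 6-plex labelled and quantified by MS3-based LC-MS/MS on an Orbitrap Fusion Lumos.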

[2] = target: T2, MLO-Y4 cell surface proteins (Mus musculus, UniProt Q9D125); conditions: co-precipitated protein Mrps25 (RT25_MOUSE)
T2 construct: endogenous in cells; host or cells: MLO-Y4
Outline: as §1

[3] = target: T3, MLO-Y4 cell surface proteins (Mus musculus, UniProt P16675); conditions: co-precipitated protein Ctsa (PPGB_MOUSE)
T3 construct: endogenous in cells; host or cells: MLO-Y4
T3 sequence (P16675 24-474): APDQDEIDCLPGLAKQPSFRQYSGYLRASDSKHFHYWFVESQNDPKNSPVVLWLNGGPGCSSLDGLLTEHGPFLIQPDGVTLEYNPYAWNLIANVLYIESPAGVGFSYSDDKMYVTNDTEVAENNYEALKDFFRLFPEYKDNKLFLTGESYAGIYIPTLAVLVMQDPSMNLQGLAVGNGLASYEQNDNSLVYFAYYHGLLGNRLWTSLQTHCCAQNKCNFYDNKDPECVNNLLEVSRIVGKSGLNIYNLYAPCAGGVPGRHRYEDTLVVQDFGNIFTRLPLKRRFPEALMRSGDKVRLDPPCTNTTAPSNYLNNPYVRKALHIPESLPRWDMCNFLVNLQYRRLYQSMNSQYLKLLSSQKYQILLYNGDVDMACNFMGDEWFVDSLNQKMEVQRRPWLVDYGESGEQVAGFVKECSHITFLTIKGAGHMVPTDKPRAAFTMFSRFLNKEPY
Outline: as §1

[4] = target: T4, MLO-Y4 cell surface proteins (Mus musculus, UniProt Q9CY64); conditions: co-precipitated protein Blvra (BIEA_MOUSE)
T4 construct: endogenous in cells; host or cells: MLO-Y4
T4 sequence (Q9CY64 3-295): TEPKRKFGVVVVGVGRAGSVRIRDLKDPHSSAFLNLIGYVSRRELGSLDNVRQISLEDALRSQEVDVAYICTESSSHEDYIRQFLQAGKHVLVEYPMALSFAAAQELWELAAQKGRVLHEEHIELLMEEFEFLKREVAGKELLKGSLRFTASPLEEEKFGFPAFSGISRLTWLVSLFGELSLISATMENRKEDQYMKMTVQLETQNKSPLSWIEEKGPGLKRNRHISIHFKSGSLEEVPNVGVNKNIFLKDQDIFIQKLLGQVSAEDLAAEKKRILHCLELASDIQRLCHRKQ
Outline: as §1

[5] = target: T5, MLO-Y4 cell surface proteins (Mus musculus, UniProt Q9CYR0); conditions: co-precipitated protein Ssbp1 (SSBP_MOUSE)
T5 construct: endogenous in cells; host or cells: MLO-Y4
T5 sequence (Q9CYR0 17-152): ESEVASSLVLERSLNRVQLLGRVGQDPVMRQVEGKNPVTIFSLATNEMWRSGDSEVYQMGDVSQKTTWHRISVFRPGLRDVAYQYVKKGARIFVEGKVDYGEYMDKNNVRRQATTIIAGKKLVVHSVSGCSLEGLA
Outline: as §1

TMT signal-to-noise ratio [1]: 138.296
TMT signal-to-noise ratio [2]: 84.7592
TMT signal-to-noise ratio [3]: 357.95
TMT signal-to-noise ratio [4]: 302.865
TMT signal-to-noise ratio [5]: 432.759
Substance: adipsin
